What all share (details): LightShift EMSA: 1x binding buffer, 2.5% glycerol, 5 mM MgCl2, 0.05% NP-40, 5 mM EDTA, 20 ng probe, 0-0.5 ng protein (so in the source), 20 uL, 20 min at 26 C; 6% …
In data set [1] the target is T1, OmpR (Pseudomonas aeruginosa PA14) (UniProt A0A0H2ZIR0).
T1 sequence: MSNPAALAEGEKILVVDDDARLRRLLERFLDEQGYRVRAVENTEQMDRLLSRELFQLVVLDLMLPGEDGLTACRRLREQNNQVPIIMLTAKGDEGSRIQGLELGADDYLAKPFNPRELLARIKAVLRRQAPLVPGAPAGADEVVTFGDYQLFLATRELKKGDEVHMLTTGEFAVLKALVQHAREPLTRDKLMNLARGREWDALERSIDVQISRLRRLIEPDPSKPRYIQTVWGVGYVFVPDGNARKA
Put plainly: EMSA.

Data set [2] deals with T2, OxyR (Pseudomonas aeruginosa PA14) (UniProt A0A0H2ZI92).
T2 sequence: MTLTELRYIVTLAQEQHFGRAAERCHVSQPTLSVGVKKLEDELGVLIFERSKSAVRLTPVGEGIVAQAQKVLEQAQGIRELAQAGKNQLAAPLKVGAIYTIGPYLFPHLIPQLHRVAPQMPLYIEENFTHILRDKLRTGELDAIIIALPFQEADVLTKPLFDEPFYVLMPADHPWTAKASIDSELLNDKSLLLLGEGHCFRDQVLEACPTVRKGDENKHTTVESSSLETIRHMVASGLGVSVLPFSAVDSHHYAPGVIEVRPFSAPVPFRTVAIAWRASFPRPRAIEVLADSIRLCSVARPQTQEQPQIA
Put plainly: EMSA.

In data set [3] the target is T1, OmpR (Pseudomonas aeruginosa PA14). Put plainly: competition.
The target of data set [4] is T2, OxyR (Pseudomonas aeruginosa PA14). Put plainly: competition.

With “GGGAGTCCAACGAAAATTTTATTTTGCAAATCCATAGACCTGTTCTAGCGTCTTTTGTAGTTCGTCGCCAGTGACGGACCAGAGGGATCGCCAAGGACAGGTTCTGCGCCGTTTTCCCTGTCATGCCTGTGATCCAGCAAGGGACTGCGATGATCAGGGCATCCCCCGATGCATTGCGCCCCCACCATTGCATCGGAGTCAGCCGCC (double strand) [Bio-PH3-T6SS left]”, the binding result in data set [1] and in data set [2] was “binds” throughout.
As to “CGATGCGCCCGTCGGCGTAGCGTTTATGTAGTTCAGCGCGCGATACACCTGTCCCTTGAAGGCGGAGGGATACGGGCTTTCCTCGTAGAAGCCGGTGGCTTCGTTGAGCACCTCCCAATCGCTGTCCTGGGTCAGCACGGCGATTCCGGGCGGGGTCGCATGATACAGGCCGTTCGTGGGGCGCCAGTATTCGATGGTTCGGGGCAT (double strand) [Unrelated DNA (control)]”, the binding entry in data set [3] and in data set [4] was “no binding” each time.

The values are drawn from publication PMC10442045.
